We go through 1 substance from US20190153097A1.

This assay deals with Cynomolgus/Rhesus CTLA-4 (cynomolgus/rhesus). The assay is described as follows: ELISA with Cynomolgus/Rhesus CTLA-4 titrated (said to be similar to the mouse CTLA-4 ELISA with coated antibodies).

What is called EC50 (read off the curve) is the concentration that produces a half-maximal response. Low readings indicate higher potency in that assay, high ones lower potency in that assay. Substance “ipilimumab (human anti-huCTLA-4 marketed as Yervoy) (antibody)” gave a 50% effective concentration (EC50 (read off the curve)) of 0.2 nM.
